T1: APBA1_2, Q02410
T1 sequence (Q02410 742-832, limits assumed, looked up): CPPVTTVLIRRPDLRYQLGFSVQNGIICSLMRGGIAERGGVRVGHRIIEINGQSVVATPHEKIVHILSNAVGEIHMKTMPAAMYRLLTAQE

T2: CARD11, Q9BXL7
T2 sequence (Q9BXL7 662-765, limits assumed, looked up): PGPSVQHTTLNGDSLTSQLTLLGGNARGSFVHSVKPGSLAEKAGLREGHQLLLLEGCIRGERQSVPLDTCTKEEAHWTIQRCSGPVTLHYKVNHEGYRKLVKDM

T3: LRRC7, Q96NW7
T3 sequence (Q96NW7 1440-1537, limits assumed, looked up): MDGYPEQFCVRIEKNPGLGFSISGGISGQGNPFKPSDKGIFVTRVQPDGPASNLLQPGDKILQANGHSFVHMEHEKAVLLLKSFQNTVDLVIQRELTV

T4: MPP6, Q9NZW5
T4 sequence (Q9NZW5 125-219, limits assumed, looked up): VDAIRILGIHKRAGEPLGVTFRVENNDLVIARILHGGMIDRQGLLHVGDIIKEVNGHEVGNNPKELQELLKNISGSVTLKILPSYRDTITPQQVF

T5: NHERF3_1, Q5T2W1
T5 sequence (Q5T2W1 4-100, limits assumed, looked up): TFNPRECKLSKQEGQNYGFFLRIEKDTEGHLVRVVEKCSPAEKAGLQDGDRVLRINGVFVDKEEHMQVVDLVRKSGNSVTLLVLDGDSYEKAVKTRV

T6: NHERF3_3, Q5T2W1
T6 sequence (Q5T2W1 238-333, limits assumed, looked up): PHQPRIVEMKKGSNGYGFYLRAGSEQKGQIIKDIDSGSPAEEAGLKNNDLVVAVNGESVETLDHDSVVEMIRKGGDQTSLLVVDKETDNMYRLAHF

T7: PARD3B_1, Q8TEW8
T7 sequence (Q8TEW8 196-299, limits assumed, looked up): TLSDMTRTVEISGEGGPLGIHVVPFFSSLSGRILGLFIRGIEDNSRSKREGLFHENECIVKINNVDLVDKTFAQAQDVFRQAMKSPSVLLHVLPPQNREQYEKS

T8: SNTG1, Q9NSN8
T8 sequence (Q9NSN8 52-150, limits assumed, looked up): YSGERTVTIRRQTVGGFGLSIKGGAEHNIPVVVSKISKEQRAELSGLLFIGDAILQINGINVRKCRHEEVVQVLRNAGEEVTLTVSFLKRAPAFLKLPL

T9: SNTG2, Q9NY99
T9 sequence (Q9NY99 68-166, limits assumed, looked up): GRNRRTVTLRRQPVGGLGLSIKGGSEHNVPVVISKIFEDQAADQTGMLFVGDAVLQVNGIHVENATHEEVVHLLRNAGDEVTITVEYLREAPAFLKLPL


Tests used:
Test in all cases: holdup assay
Design in all cases: key: below the threshold = too weak to quantify, mostly under pKd 3.1 to 4
Conditions in all cases: plain residues with an end cap or a label only (N-terminal biotin on a linker: ado-ado)
AHNAK1, Q09666 = target: AHNAK1, Q09666
AHNAK1, Q09666, sequence (Q09666 4-100): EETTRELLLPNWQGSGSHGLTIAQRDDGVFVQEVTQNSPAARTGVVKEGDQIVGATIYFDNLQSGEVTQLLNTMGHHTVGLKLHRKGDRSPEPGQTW

APBA1_2, Q02410 = target: T1, APBA1_2, Q02410
CARD11, Q9BXL7 = target: T2, CARD11, Q9BXL7
DLG1_3, Q12959 = target: DLG1_3, Q12959
DLG1_3, Q12959, sequence (Q12959 457-571): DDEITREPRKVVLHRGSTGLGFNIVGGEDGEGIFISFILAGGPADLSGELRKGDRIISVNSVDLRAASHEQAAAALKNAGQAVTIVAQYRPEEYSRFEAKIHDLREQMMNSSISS

DLG2_2, Q15700 = target: DLG2_2, Q15700
DLG2_2, Q15700, sequence (Q15700 189-283): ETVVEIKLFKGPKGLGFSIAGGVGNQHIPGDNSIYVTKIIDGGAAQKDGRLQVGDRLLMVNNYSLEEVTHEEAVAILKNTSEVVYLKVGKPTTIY

DLG5_1, Q8TDM6 = target: DLG5_1, Q8TDM6
DLG5_1, Q8TDM6, sequence (Q8TDM6 617-713): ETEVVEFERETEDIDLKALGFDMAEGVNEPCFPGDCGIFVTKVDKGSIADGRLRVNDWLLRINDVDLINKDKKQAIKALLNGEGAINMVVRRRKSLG

GRASP, Q7Z6J2 = target: GRASP, Q7Z6J2
GRASP, Q7Z6J2, sequence (Q7Z6J2 96-193): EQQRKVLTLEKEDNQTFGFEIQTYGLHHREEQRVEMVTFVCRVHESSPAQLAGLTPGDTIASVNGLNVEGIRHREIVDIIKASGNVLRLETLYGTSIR

GRIP2_6, Q9C0E4 = target: GRIP2_6, Q9C0E4
GRIP2_6, Q9C0E4, sequence (Q9C0E4 648-740): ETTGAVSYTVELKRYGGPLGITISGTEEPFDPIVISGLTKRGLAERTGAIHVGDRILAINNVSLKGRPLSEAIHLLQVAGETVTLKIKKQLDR

IL16_1, Q14005 = target: IL16_1, Q14005
IL16_1, Q14005, sequence (Q14005 210-306): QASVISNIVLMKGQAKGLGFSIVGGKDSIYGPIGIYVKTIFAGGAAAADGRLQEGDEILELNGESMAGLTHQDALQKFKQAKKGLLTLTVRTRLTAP

IL16_4, Q14005 = target: IL16_4, Q14005
IL16_4, Q14005, sequence (Q14005 1229-1329): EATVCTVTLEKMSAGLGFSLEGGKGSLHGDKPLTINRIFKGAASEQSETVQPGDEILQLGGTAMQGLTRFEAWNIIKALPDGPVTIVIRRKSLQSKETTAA

Inadl_3, Q8NI35 = target: Inadl_3, Q8NI35
Inadl_3, Q8NI35, sequence (Q8NI35 359-469): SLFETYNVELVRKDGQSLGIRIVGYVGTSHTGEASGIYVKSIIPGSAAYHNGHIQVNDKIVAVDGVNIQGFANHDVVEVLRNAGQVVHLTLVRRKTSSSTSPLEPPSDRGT

LDB3, O75112 = target: LDB3, O75112
LDB3, O75112, sequence (O75112 1-94): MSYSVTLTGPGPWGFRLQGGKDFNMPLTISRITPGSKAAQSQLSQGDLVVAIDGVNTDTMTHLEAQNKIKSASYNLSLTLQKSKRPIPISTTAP

LIMK2, P53671 = target: LIMK2, P53671
LIMK2, P53671, sequence (P53671 143-248): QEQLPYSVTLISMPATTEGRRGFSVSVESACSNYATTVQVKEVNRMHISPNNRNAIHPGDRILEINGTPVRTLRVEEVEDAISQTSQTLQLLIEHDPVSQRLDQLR

LNX1_1, Q8TBB1 = target: LNX1_1, Q8TBB1
LNX1_1, Q8TBB1, sequence (Q8TBB1 261-371): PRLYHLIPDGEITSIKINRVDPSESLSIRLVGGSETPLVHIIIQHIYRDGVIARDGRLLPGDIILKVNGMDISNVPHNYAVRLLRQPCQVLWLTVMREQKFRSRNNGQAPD

LRRC7, Q96NW7 = target: T3, LRRC7, Q96NW7
MAGI2_3, Q86UL8 = target: MAGI2_3, Q86UL8
MAGI2_3, Q86UL8, sequence (Q86UL8 600-682): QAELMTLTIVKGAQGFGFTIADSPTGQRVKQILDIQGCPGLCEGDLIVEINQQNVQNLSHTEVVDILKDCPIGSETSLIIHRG

MPP6, Q9NZW5 = target: T4, MPP6, Q9NZW5
NHERF3_1, Q5T2W1 = target: T5, NHERF3_1, Q5T2W1
NHERF3_3, Q5T2W1 = target: T6, NHERF3_3, Q5T2W1
NHERF4_4, Q86UT5 = target: NHERF4_4, Q86UT5
NHERF4_4, Q86UT5, sequence (Q86UT5 464-550): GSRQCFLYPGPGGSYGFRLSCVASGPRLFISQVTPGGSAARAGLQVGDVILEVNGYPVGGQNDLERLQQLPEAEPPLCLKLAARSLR

PARD3B_1, Q8TEW8 = target: T7, PARD3B_1, Q8TEW8
PICK1, Q9NRD5 = target: PICK1, Q9NRD5
PICK1, Q9NRD5, sequence (Q9NRD5 17-115): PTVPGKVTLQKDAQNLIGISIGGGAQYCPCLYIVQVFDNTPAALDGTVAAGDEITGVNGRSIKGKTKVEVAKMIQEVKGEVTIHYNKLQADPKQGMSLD

PTPN3, P26045 = target: PTPN3, P26045
PTPN3, P26045, sequence (P26045 505-587): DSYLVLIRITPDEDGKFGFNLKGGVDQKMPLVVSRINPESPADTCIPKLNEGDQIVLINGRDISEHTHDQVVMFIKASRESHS

SCRIB_1, Q14160 = target: SCRIB_1, Q14160
SCRIB_1, Q14160, sequence (Q14160 718-814): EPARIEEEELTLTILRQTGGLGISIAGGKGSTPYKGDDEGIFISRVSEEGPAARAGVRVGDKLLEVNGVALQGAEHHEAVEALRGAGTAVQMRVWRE

SCRIB_3, Q14160 = target: SCRIB_3, Q14160
SCRIB_3, Q14160, sequence (Q14160 999-1103): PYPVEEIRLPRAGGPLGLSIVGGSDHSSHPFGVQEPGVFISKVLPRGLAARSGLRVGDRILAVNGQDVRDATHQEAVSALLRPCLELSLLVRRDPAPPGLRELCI

SNTG1, Q9NSN8 = target: T8, SNTG1, Q9NSN8
SNTG2, Q9NY99 = target: T9, SNTG2, Q9NY99
TJP1_3, Q07157 = target: TJP1_3, Q07157
TJP1_3, Q07157, sequence (Q07157 416-512): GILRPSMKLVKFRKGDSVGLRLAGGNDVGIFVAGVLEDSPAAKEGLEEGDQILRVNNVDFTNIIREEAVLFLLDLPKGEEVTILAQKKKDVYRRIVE

pKd (AHNAK1, Q09666) | pKd (APBA1_2, Q02410) | pKd (CARD11, Q9BXL7) | pKd (DLG1_3, Q12959) | pKd (DLG2_2, Q15700) | pKd (DLG5_1, Q8TDM6) | pKd (GRASP, Q7Z6J2) | pKd (GRIP2_6, Q9C0E4) | pKd (IL16_1, Q14005) | pKd (IL16_4, Q14005) | pKd (Inadl_3, Q8NI35) | pKd (LDB3, O75112) | pKd (LIMK2, P53671) | pKd (LNX1_1, Q8TBB1) | pKd (LRRC7, Q96NW7) | pKd (MAGI2_3, Q86UL8) | pKd (MPP6, Q9NZW5) | pKd (NHERF3_1, Q5T2W1) | pKd (NHERF3_3, Q5T2W1) | pKd (NHERF4_4, Q86UT5) | Binder | further results
below the threshold | below the threshold | below the threshold | below the threshold | below the threshold | below the threshold | below the threshold | below the threshold | below the threshold | below the threshold | below the threshold | below the threshold | below the threshold | 3.52 | below the threshold | below the threshold | below the threshold | below the threshold | below the threshold | 3.81 | QKASRNESTF [POLR1D, P0DPB6] | pKd (PARD3B_1, Q8TEW8): 4.05; pKd (PICK1, Q9NRD5): 4.01; pKd (PTPN3, P26045): 4.62; pKd (SCRIB_1, Q14160): 3.55; pKd (SCRIB_3, Q14160): 4.12; pKd (SNTG1, Q9NSN8): below the threshold; pKd (SNTG2, Q9NY99): below the threshold; pKd (TJP1_3, Q07157): below the threshold
below the threshold | 4.24 | below the threshold | below the threshold | below the threshold | below the threshold | 3.68 | below the threshold | below the threshold | 3.7 | below the threshold | below the threshold | below the threshold | below the threshold | below the threshold | below the threshold | below the threshold | below the threshold | below the threshold | below the threshold | MQILSKPEFI [NPSR1, Q6W5P4] | pKd (PARD3B_1, Q8TEW8): 4.09; pKd (PICK1, Q9NRD5): 4.08; pKd (PTPN3, P26045): 3.94; pKd (SCRIB_1, Q14160): below the threshold; pKd (SCRIB_3, Q14160): 3.59; pKd (SNTG1, Q9NSN8): below the threshold; pKd (SNTG2, Q9NY99): below the threshold; pKd (TJP1_3, Q07157): below the threshold
below the threshold | below the threshold | below the threshold | below the threshold | below the threshold | below the threshold | 3.69 | 4.14 | below the threshold | below the threshold | 5 | below the threshold | below the threshold | below the threshold | below the threshold | below the threshold | 3.67 | below the threshold | below the threshold | 4.68 | STYCDYTIEI [FAM71C, Q8NEG0] | pKd (PARD3B_1, Q8TEW8): 4.1; pKd (PICK1, Q9NRD5): below the threshold; pKd (PTPN3, P26045): 4.16; pKd (SCRIB_1, Q14160): below the threshold; pKd (SCRIB_3, Q14160): 4.06; pKd (SNTG1, Q9NSN8): below the threshold; pKd (SNTG2, Q9NY99): below the threshold; pKd (TJP1_3, Q07157): below the threshold
below the threshold | below the threshold | below the threshold | below the threshold | 3.52 | below the threshold | below the threshold | below the threshold | below the threshold | below the threshold | below the threshold | below the threshold | below the threshold | below the threshold | below the threshold | below the threshold | below the threshold | 3.64 | below the threshold | below the threshold | KEKASTETEC [TRPM1, Q7Z4N2] | pKd (PARD3B_1, Q8TEW8): 3.97; pKd (PICK1, Q9NRD5): below the threshold; pKd (PTPN3, P26045): 4.9; pKd (SCRIB_1, Q14160): 4.31; pKd (SCRIB_3, Q14160): 4.23; pKd (SNTG1, Q9NSN8): below the threshold; pKd (SNTG2, Q9NY99): below the threshold; pKd (TJP1_3, Q07157): below the threshold
below the threshold | 4.07 | below the threshold | 3.59 | 3.74 | 3.52 | 5.5 | below the threshold | 3.48 | below the threshold | 4.43 | below the threshold | below the threshold | below the threshold | below the threshold | 4.52 | 3.74 | 4.13 | below the threshold | below the threshold | KIEDVEITLV [FCHSD2, O94868] | pKd (PARD3B_1, Q8TEW8): 3.91; pKd (PICK1, Q9NRD5): below the threshold; pKd (PTPN3, P26045): 3.5; pKd (SCRIB_1, Q14160): 3.8; pKd (SCRIB_3, Q14160): 3.48; pKd (SNTG1, Q9NSN8): 4.14; pKd (SNTG2, Q9NY99): 3.58; pKd (TJP1_3, Q07157): below the threshold
